In assay [1] the target is T1, human FAP on cells (human, UniProt Q12884 1-760).
T1 construct: Natural FAP of the melanoma line WM266-4, or human FAP from vector pETR4921 in NIH/3T3 cells; also called huFAP on WM266-4 cells; human FAP on NIH/3T3-huFAP clone 39 cells
As to the kind of experiment: flow cytometry on NIH/3T3-huFAP clone 39 cells. (In flow cytometry, cells or beads pass a laser one at a time.)

Assay [2] concerns the target T2, human 4-1BB on cells (human, UniProt Q07011 24-255).
T2 construct: also called human 4-1BB on NF-kB-luciferase human-4-1BB HeLa clone 26 cells
As to the kind of experiment: flow cytometry on activated human PBMC (legend of Figure 14).

Assay [3] deals with T3, human FAP (soluble, second analyte in SPR) (human, UniProt Q12884 26-760).
T3 construct: also called human FAP protein
Nature of the assay: SPR Biacore T200, biotinylated human 4-1BB Fc(kih) on SA chip, construct 200 nM, then human FAP 500 nM. A general note: In SPR one partner is held on a chip, and binding of the other changes the refractive index at the surface.

The source of these data is patent publication WO2018178074A1 (dated 2018).

T2 sequence (Q07011 24-255 limits assumed): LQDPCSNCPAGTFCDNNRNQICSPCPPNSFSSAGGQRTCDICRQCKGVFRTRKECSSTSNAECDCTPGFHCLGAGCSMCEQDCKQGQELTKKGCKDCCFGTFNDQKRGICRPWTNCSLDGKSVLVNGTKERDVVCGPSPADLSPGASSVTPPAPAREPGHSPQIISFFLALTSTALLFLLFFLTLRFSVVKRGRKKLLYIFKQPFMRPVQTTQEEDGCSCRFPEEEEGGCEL

B1: 12B3 huIgG1 P329G LALA (antibody, V domains shown)
VH: QVQLVQSGAEVKKPGSSVKVSCKASGGTFSSYAISWVRQAPGQGLEWMGGIIPIFGTANYAQKFQGRVTITADKSTSTAYMELSSLRSEDTAVYYCARSEFRFYADFDYWGQGTTVTVSS
VL: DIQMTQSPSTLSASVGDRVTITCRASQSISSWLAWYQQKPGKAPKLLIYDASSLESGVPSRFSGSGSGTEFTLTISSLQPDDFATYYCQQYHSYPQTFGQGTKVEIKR
notes: Human IgG1 with Pro329Gly, Leu234Ala, Leu235Ala; also called 12B3 hulgGI P329G LALA; parental huIgG1 P329G LALA 12B3
As to B1, in assay [1], the binding result is “no binding”.

B2: 25G7 x FAP 3+3 (bispecific antibody)
chain: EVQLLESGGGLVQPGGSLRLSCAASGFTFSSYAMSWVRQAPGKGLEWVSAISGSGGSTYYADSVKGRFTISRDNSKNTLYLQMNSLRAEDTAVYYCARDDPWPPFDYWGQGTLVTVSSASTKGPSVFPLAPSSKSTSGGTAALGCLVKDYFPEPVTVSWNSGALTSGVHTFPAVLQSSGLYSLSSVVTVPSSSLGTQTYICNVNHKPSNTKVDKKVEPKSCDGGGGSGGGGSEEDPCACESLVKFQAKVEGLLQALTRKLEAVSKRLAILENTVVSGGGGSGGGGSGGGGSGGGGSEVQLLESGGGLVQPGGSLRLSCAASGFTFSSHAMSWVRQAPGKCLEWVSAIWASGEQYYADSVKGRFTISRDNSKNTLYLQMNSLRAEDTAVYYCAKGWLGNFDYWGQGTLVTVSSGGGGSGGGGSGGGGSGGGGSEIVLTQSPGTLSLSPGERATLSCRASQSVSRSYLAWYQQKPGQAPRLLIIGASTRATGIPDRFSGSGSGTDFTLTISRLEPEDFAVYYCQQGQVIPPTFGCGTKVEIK
light: SSELTQDPAVSVALGQTVRITCQGDSLRSYYASWYQQKPGQAPVLVIYGKNNRPSGIPDRFSGSSSGNTASLTITGAQAEDEADYYCNSLDRRGMWVFGGGTKLTVRTVAAPSVFIFPPSDEQLKSGTASVVCLLNNFYPREAKVQWKVDNALQSGNSQESVTEQDSKDSTYSLSSTLTLSKADYEKHKVYACEVTHQGLSSPVTKSFNRGEC
notes: Trimer of three CMP chains, each paired with an anti-4-1BB light chain; no Fc; also called 3+3 25G7/28H1
B2: the binding result in assay [2], in assay [1] and in assay [3] was “binds” in each case.

B3: 25G7 huIgG1 P329G LALA (antibody, V domains shown)
VH: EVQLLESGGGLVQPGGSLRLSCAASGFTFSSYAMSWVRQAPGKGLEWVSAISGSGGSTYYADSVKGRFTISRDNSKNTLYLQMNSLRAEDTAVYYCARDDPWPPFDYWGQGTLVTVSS
VL: SSELTQDPAVSVALGQTVRITCQGDSLRSYYASWYQQKPGQAPVLVIYGKNNRPSGIPDRFSGSSSGNTASLTITGAQAEDEADYYCNSLDRRGMWVFGGGTKLTVLG
notes: Human IgG1 with Pro329Gly, Leu234Ala, Leu235Ala; also called 25G7 hulgGI P329G LALA; parental huIgG1 P329G LALA 25G7
On to B3, for which, in assay [1], the binding result is on record as “no binding”.
